Results: patent publication US20050064507

What was measured:
[1] = system: T1, ERN1 peptide KLAVGRHSFSRRSGV (SEQ ID NO:94)
T1 sequence: KLAVGRHSFSRRSGV

[2] = system: T2, peptide GLLDRKGSWKKLDDM (SEQ ID NO:35)
T2 sequence: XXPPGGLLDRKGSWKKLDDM

[3] = system: T3, gravin peptide KKFFTQGWAGWRKKTSFRKP (SEQ ID NO:154)
T3 sequence: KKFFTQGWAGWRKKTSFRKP

[4] = system: T4, peptide KRPGKKGSNKRPGKR (SEQ ID NO:28)
T4 sequence: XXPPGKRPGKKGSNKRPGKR

[5] = system: T5, peptide AQIVKRASLKRGKQ (SEQ ID NO:10)
T5 sequence: XXPPGAQIVKRASLKRGKQ

[6] = system: T6, dag kinase iota peptide NRKKKRTSFKRKA (SEQ ID NO:117)
T6 sequence: NRKKKRTSFKRKA

[7] = system: T7, peptide WKGKRRSKARKKRK (SEQ ID NO:13)
T7 sequence: XXPPGWKGKRRSKARKKRK

[8] = system: T8, GABRB2 peptide QKKSRLRRRASQLKI (SEQ ID NO:84)
T8 sequence: QKKSRLRRRASQLKI

[9] = system: T9, peptide HERKGSDKRGDNQ (SEQ ID NO:70)
T9 sequence: XXPPGHERKGSDKRGDNQ

[10] = system: T10, peptide VFREHQRSGSYHVRE (SEQ ID NO:45)
T10 sequence: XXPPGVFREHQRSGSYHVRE

[11] = system: T11, DGKZ peptide KKKKRASFKRKSSKKG (SEQ ID NO:77)
T11 sequence: KKKKRASFKRKSSKKG

[12] = system: T12, Urotensin-2 receptor peptide LYARLARAYRRSQRASFKRA (SEQ ID NO:159)
T12 sequence: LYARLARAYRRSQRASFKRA

[13] = system: T13, peptide ALRAPKPTLRYFTTERF (SEQ ID NO:64)
T13 sequence: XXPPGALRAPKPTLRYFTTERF

[14] = system: T14, peptide AWVTVHEKKSSRKSEYL (SEQ ID NO:43)
T14 sequence: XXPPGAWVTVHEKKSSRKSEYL

[15] = system: T15, nuclear RNA export factor 3 peptide VRYTPYTISPYNRKGSFRKQ (SEQ ID NO:143)
T15 sequence: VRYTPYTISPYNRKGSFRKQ

[16] = system: T16, fit1 peptide VQMTWSYPDEKNKRASVRRR (SEQ ID NO:158)
T16 sequence: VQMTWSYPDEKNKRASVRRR

[17] = system: T17, DGKI peptide NRKKKRTSFKRKA (SEQ ID NO:79)
T17 sequence: NRKKKRTSFKRKA

[18] = system: T18, peptide AVRDMRQTVAVGVIK (SEQ ID NO:62)
T18 sequence: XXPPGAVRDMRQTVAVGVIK

[19] = system: T19, pkc-zeta peptide GLPAPGEDKSIYRRGSRRWR (SEQ ID NO:167)
T19 sequence: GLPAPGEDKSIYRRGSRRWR

[20] = system: T20, peptide AGSFKRNSIKKIV (SEQ ID NO:19)
T20 sequence: XXPPGAGSFKRNSIKKIV

[21] = system: T21, peptide KATTKKRTLRKNDRK (SEQ ID NO:32)
T21 sequence: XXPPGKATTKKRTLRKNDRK

[22] = system: T22, peptide KNVVKLLSSRRTQDR (SEQ ID NO:57)
T22 sequence: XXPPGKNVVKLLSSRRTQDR

[23] = system: T23, CACNA1C peptide RGFLRSASLGRRASFHLE (SEQ ID NO:96)
T23 sequence: RGFLRSASLGRRASFHLE

[24] = system: T24, peptide VLAKKGTSKTPVPE (SEQ ID NO:44)
T24 sequence: XXPPGVLAKKGTSKTPVPE

[25] = system: T25, MacMARCKS peptide KKKFSFKKPFKLSGLSFKRN (SEQ ID NO:162)
T25 sequence: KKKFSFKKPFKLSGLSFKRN

[26] = system: T26, peptide IKVTHKATGKVMVMK (SEQ ID NO:65)
T26 sequence: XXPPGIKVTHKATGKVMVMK

[27] = system: T27, pleckstrin 1 peptide KAIKAIEGGQKFARKSTRRS (SEQ ID NO:126)
T27 sequence: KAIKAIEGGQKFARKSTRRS

[28] = system: T28, peptide HVRRRRGTFKRSKLRARD (SEQ ID NO:1)
T28 sequence: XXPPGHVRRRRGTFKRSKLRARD

[29] = system: T29, p164-RhoGEF peptide PRLIRRGSKKRPAR (SEQ ID NO:82)
T29 sequence: PRLIRRGSKKRPAR

[30] = system: T30, M1 muscarinic receptor peptide RWDKRRWRKIPKRPGSVHRT (SEQ ID NO:155)
T30 sequence: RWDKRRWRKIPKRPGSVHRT

[31] = system: T31, peptide GENVLKKSMKSRVKG (SEQ ID NO:36)
T31 sequence: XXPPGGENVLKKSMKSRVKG

[32] = system: T32, dag kinase iota peptide PQNSLKASNRKKKRTSFKRK (SEQ ID NO:151)
T32 sequence: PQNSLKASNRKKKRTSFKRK

[33] = system: T33, peptide RKNDRKKRYTVVGNP (SEQ ID NO:29)
T33 sequence: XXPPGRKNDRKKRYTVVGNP

[34] = system: T34, peptide EYLERRASRRRAV (SEQ ID NO:14)
T34 sequence: XXPPGEYLERRASRRRAV

[35] = system: T35, peptide PRLIRRGSKKRPAR (SEQ ID NO:6)
T35 sequence: XXPPGPRLIRRGSKKRPAR

[36] = system: T36, peptide FVHQASFKFGQGD (SEQ ID NO:41)
T36 sequence: XXPPGFVHQASFKFGQGD

[37] = system: T37, beta adducin peptide KKKFRTPSFLKKSKK (SEQ ID NO:135)
T37 sequence: KKKFRTPSFLKKSKK

[38] = system: T38, ARHGAP6 peptide SAQITIPKDGQKRKKSLRKK (SEQ ID NO:156)
T38 sequence: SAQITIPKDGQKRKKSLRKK

[39] = system: T39, peptide VQQLLRSSNRRLEQL (SEQ ID NO:49)
T39 sequence: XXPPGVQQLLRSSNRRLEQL

[40] = system: T40, peptide RKIPKRPGSVHRTPSRQ (SEQ ID NO:7)
T40 sequence: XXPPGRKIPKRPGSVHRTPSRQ

[41] = system: T41, PLEK peptide KFARKSTRRSIRLPE (SEQ ID NO:78)
T41 sequence: KFARKSTRRSIRLPE

## PKC-delta
[1]
  in vitro phosphorylation (% of best substrate): 12
[2]
  in vitro phosphorylation (% of best substrate): 4
[3]
  in vitro phosphorylation, 1 uM peptide (% of best substrate): 26
  in vitro phosphorylation, 10 uM peptide (% of best substrate): 14
[4]
  in vitro phosphorylation (% of best substrate): 8
[5]
  in vitro phosphorylation (% of best substrate): 32
[6]
  in vitro phosphorylation, 1 uM peptide (% of best substrate): 100
  in vitro phosphorylation, 10 uM peptide (% of best substrate): 79
[7]
  in vitro phosphorylation (% of best substrate): 22
[8]
  in vitro phosphorylation (% of best substrate): 34
[9]
  in vitro phosphorylation (% of best substrate): 1
[10]
  in vitro phosphorylation (% of best substrate): 2
[11]
  in vitro phosphorylation (% of best substrate): 76
[12]
  in vitro phosphorylation, 1 uM peptide (% of best substrate): 15
  in vitro phosphorylation, 10 uM peptide (% of best substrate): 12
[13]
  in vitro phosphorylation (% of best substrate): 1
[14]
  in vitro phosphorylation (% of best substrate): 3
[15]
  in vitro phosphorylation, 1 uM peptide (% of best substrate): 33
  in vitro phosphorylation, 10 uM peptide (% of best substrate): 32
[16]
  in vitro phosphorylation, 1 uM peptide (% of best substrate): 18
  in vitro phosphorylation, 10 uM peptide (% of best substrate): 33
[17]
  in vitro phosphorylation (% of best substrate): 66
[18]
  in vitro phosphorylation (% of best substrate): 1
[19]
  in vitro phosphorylation, 1 uM peptide (% of best substrate): 13
  in vitro phosphorylation, 10 uM peptide (% of best substrate): 24
[20]
  in vitro phosphorylation (% of best substrate): 14
[21]
  in vitro phosphorylation (% of best substrate): > 5
[22]
  in vitro phosphorylation (% of best substrate): 2
[23]
  in vitro phosphorylation (% of best substrate): 18
[24]
  in vitro phosphorylation (% of best substrate): 2
[25]
  in vitro phosphorylation, 1 uM peptide (% of best substrate): 21
  in vitro phosphorylation, 10 uM peptide (% of best substrate): 13
[26]
  in vitro phosphorylation (% of best substrate): 1
[27]
  in vitro phosphorylation, 1 uM peptide (% of best substrate): 47
  in vitro phosphorylation, 10 uM peptide (% of best substrate): 43
[28]
  in vitro phosphorylation (% of best substrate): 100
[29]
  in vitro phosphorylation (% of best substrate): 40
[30]
  in vitro phosphorylation, 1 uM peptide (% of best substrate): 30
  in vitro phosphorylation, 10 uM peptide (% of best substrate): 23
[31]
  in vitro phosphorylation (% of best substrate): 4
[32]
  in vitro phosphorylation, 1 uM peptide (% of best substrate): 27
  in vitro phosphorylation, 10 uM peptide (% of best substrate): 37
[33]
  in vitro phosphorylation (% of best substrate): 8
[34]
  in vitro phosphorylation (% of best substrate): 20
[35]
  in vitro phosphorylation (% of best substrate): 40
[36]
  in vitro phosphorylation (% of best substrate): 3
[37]
  in vitro phosphorylation, 1 uM peptide (% of best substrate): 40
  in vitro phosphorylation, 10 uM peptide (% of best substrate): 25
[38]
  in vitro phosphorylation, 1 uM peptide (% of best substrate): 29
  in vitro phosphorylation, 10 uM peptide (% of best substrate): 31
[39]
  in vitro phosphorylation (% of best substrate): 2
[40]
  in vitro phosphorylation (% of best substrate): 38
[41]
  in vitro phosphorylation (% of best substrate): 52
